Measured values published in patent US20040005648A1, “PYK2 related products and methods” (Sugen, Inc., priority 1994, published 2004).

Assays:
Shc = test: Tyrosine phosphorylation of Shc in stimulated PC12 cells (anti-Shc immunoprecipitation, anti-phosphotyrosine immunoblot); type: cell-based, rat
Method: Tyrosine phosphorylation of Shc in response to bradykinin, carbachol, PMA and other stimuli was also measured. Quiescent PC12 cells were stimulated for 5 min at 37° C. with bradykinin (1AM), carbachol (1 mM), KC1 (75 mM), PMA (1.6pM), NGF (100 ng/ml), or left unstimulated (−). The cells were also stimulated with carbachol (1 mM) or potassium chloride (75 mM) in the presence of 3 mM EGTA. Stimulations with DMPP (100 μM) or muscarine (1 mM) were preformed under the same conditions. […] The Shc proteins were immunoprecipitated with anti-Shc antibodies, the immunoprecipitates were resolved by SDS-PAGE (8%1, transferred to nitrocellulose and immunoblotted with anti-phosphotyrosine antibodies.

PYK-2 = test: Tyrosine phosphorylation of PYK-2 in NIH3T3 cell lines that overexpress PYK-2; type: cell-based, mouse; settings: NIH3T3 cells overexpressing PYK-2 / PYK-2-HA; TPA 6 μM, 15 min at 37° C.
Method: Stable cell lines of NIH3T3 that overexpress PYK2 were established by contransfection of PYK2 subcloned into pLSV together with pSV2neo utilizing lipofectamine reagent (GIBCO BRL). Following transfection the cells were grown in Dulbecco's modified Eagle's medium containing 10% fetal bovine serum and 1 mg/ml G418. Transient transfections into 293 cells were performed by using the calcium phosphate technique (*).
The PYK-2 cDNA cloned in PLSV was cotransfected with pSV2neo into PC12 cells and NIH3T3 in order to establish stable cell lines. G418 resistant colonies were screened by immunoprecipitating and immunoblotting.
NIH3T3 cell lines were established that overexpress the PYK-2 and the PYK-2-HA protein. […] The level of phosphorylation is not so high.

| Molecule | duration of stimulation of Shc phosphorylation after addition (Shc) | tyrosine phosphorylation of Shc in response to the agent (Shc) | tyrosine phosphorylation of PYK-2 in response to the agent (PYK-2) |
| --- | --- | --- | --- |
| NGF: growth factor stimulus of PC12 cells (protein, UniProt P25427 122-241, looked up, Beta-nerve growth factor, growth factor stimulus of PC12 cells) Beta-nerve growth factor: SSTHPVFHMGEFSVCDSVSVWVGDKTTATDIKGKEVTVLGEVNINNSVFKQYFFETKCRAPNPVESGCRGIDSKHWNSYCTTTHTFVKALTTDDKQAAWRFIRIDTACVCVLSRKAARRG | five | induced persistent stimulation of Shc phosphorylation | – |
| EGF: growth factor stimulus (protein, UniProt P01133 23-1207, looked up, Pro-epidermal growth factor, growth factor stimulus) Pro-epidermal growth factor: PQHWSCPEGTLAGNGNSTCVGPAPFLIFSHGNSIFRIDTEGTNYEQLVVDAGVSVIMDFHYNEKRIYWVDLERQLLQRVFLNGSRQERVCNIEKNVSGMAINWINEEVIWSNQQEGIITVTDMKGNNSHILLSALKYPANVAVDPVERFIFWSSEVAGSLYRADLDGVGVKALLETSEKITAVSLDVLDKRLFWIQYNREGSNSLICSCDYDGGSVHISKHPTQHNLFAMSLFGDRIFYSTWKMKTIWIANKHTGKDMVRINLHSSFVPLGELKVVHPLAQPKAEDDTWEPEQKLCKLRKGNCSSTVCGQDLQSHLCMCAEGYALSRDRKYCEDVNECAFWNHGCTLGCKNTPGSYYCTCPVGFVLLPDGKRCHQLVSCPRNVSECSHDCVLTSEGPLCFCPEGSVLERDGKTCSGCSSPDNGGCSQLCVPLSPVSWECDCFPGYDLQLDEKSCAASGPQPFLLFANSQDIRHMHFDGTDYGTLLSQQMGMVYALDHDPVENKIYFAHTALKWIERANMDGSQRERLIEEGVDVPEGLAVDWIGRRFYWTDRGKSLIGRSDLNGKRSKIITKENISQPRGIAVHPMAKRLFWTDTGINPRIESSSLQGLGRLVIASSDLIWPSGITIDFLTDKLYWCDAKQSVIEMANLDGSKRRRLTQNDVGHPFAVAVFEDYVWFSDWAMPSVMRVNKRTGKDRVRLQGSMLKPSSLVVVHPLAKPGADPCLYQNGGCEHICKKRLGTAWCSCREGFMKASDGKTCLALDGHQLLAGGEVDLKNQVTPLDILSKTRVSEDNITESQHMLVAEIMVSDQDDCAPVGCSMYARCISEGEDATCQCLKGFAGDGKLCSDIDECEMGVPVCPPASSKCINTEGGYVCRCSEGYQGDGIHCLDIDECQLGEHSCGENASCTNTEGGYTCMCAGRLSEPGLICPDSTPPPHLREDDHHYSVRNSDSECPLSHDGYCLHDGVCMYIEALDKYACNCVVGYIGERCQYRDLKWWELRHAGHGQQQKVIVVAVCVVVLVMLLLLSLWGAHYYRTQKLLSKNPKNPYEESSRDVRSRRPADTEDGMSSCPQPWFVVIKEHQDLKNGGQPVAGEDGQAADGSMQPTSWRQEPQLCGMGTEQGCWIPVSSDKGSCPQVMERSFHMPSYGTQTLEGGVEKPHSLLSANPLWQQRALDPPHQMELTQ | – | – | undergoes tyrosine phosphorylation |
